How the values were obtained:
Assay in all cases: holdup assay
Design in all cases: key: below the threshold = too weak to quantify, mostly under pKd 3.1 to 4
AHNAK1, Q09666 = target: AHNAK1, Q09666
APBA3_1, O96018 = target: T1, APBA3_1, O96018
T1 sequence (O96018 389-490, limits assumed, looked up): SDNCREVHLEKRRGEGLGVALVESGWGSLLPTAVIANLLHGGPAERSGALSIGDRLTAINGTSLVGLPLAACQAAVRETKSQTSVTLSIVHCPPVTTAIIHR

DLG3_3, Q92796 = target: T2, DLG3_3, Q92796
T2 sequence (Q92796 374-475, limits assumed, looked up): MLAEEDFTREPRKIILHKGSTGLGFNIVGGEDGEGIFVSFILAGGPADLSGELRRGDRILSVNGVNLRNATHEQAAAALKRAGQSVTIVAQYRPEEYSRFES

DLG4_3, P78352 = target: DLG4_3, P78352
DLG4_3, P78352, sequence (P78352 306-403): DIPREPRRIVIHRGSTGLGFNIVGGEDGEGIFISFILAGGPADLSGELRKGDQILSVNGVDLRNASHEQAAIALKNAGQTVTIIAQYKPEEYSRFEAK

DLG5_1, Q8TDM6 = target: DLG5_1, Q8TDM6
DLG5_1, Q8TDM6, sequence (Q8TDM6 617-713): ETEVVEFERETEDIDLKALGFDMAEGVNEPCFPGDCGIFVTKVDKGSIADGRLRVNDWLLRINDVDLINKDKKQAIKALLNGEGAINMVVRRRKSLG

FRMPD2_3, Q68DX3 = target: FRMPD2_3, Q68DX3
FRMPD2_3, Q68DX3, sequence (Q68DX3 1073-1166): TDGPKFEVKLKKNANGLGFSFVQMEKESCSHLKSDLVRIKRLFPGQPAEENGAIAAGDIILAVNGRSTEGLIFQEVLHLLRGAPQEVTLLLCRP

FRMPD4, Q14CM0 = target: FRMPD4, Q14CM0
FRMPD4, Q14CM0, sequence (Q14CM0 67-160): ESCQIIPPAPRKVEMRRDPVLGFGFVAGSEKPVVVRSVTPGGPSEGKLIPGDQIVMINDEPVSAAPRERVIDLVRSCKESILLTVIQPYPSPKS

GIPC2, Q8TF65 = target: GIPC2, Q8TF65
GIPC2, Q8TF65, sequence (Q8TF65 112-203): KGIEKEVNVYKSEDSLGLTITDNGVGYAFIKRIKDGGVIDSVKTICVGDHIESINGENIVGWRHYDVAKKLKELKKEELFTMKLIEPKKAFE

GORASP1, Q9BQQ3 = target: GORASP1, Q9BQQ3
GORASP1, Q9BQQ3, sequence (Q9BQQ3 1-208): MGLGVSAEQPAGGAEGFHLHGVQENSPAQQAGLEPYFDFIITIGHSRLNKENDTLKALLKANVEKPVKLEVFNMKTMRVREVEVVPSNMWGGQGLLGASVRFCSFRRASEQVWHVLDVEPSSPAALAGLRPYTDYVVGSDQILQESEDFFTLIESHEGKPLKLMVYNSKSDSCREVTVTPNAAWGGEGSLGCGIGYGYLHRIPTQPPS

GRID2IP_2, A4D2P6 = target: GRID2IP_2, A4D2P6
GRID2IP_2, A4D2P6, sequence (A4D2P6 272-370): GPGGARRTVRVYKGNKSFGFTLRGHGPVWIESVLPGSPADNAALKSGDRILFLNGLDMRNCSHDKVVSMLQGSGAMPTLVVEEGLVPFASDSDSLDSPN

IL16_3, Q14005 = target: IL16_3, Q14005
IL16_3, Q14005, sequence (Q14005 1107-1207): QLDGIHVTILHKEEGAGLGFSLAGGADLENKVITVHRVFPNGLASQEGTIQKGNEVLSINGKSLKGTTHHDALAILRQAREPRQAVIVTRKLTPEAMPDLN

Inadl_1, Q8NI35 = target: Inadl_1, Q8NI35
Inadl_1, Q8NI35, sequence (Q8NI35 113-229): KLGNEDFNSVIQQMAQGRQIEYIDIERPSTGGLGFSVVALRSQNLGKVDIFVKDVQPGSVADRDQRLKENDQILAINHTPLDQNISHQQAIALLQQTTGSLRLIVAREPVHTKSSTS

Inadl_4, Q8NI35 = target: Inadl_4, Q8NI35
Inadl_4, Q8NI35, sequence (Q8NI35 547-651): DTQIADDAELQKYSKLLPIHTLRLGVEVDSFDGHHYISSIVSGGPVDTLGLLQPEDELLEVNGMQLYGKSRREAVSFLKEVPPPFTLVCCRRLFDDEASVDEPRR

Inadl_5, Q8NI35 = target: Inadl_5, Q8NI35
Inadl_5, Q8NI35, sequence (Q8NI35 673-780): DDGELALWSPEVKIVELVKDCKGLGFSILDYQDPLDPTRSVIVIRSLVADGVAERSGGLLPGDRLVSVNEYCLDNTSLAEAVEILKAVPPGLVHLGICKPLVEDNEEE

Inadl_9, Q8NI35 = target: Inadl_9, Q8NI35
Inadl_9, Q8NI35, sequence (Q8NI35 1530-1615): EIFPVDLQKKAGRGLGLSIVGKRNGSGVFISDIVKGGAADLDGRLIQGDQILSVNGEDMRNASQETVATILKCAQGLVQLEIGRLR

LIMK2, P53671 = target: LIMK2, P53671
LIMK2, P53671, sequence (P53671 143-248): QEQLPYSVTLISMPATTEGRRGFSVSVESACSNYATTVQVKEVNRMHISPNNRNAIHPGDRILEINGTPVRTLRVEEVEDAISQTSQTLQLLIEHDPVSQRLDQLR

LNX1_3, Q8TBB1 = target: LNX1_3, Q8TBB1
LNX1_3, Q8TBB1, sequence (Q8TBB1 500-596): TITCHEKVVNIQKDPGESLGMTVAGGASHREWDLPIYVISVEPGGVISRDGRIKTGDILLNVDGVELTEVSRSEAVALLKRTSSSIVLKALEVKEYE

LNX2_3, Q8N448 = target: T3, LNX2_3, Q8N448
T3 sequence (Q8N448 463-564, limits assumed, looked up): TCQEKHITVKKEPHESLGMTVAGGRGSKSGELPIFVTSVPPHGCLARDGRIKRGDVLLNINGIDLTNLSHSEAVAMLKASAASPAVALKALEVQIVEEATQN

LRRC7, Q96NW7 = target: T4, LRRC7, Q96NW7
T4 sequence (Q96NW7 1440-1537, limits assumed, looked up): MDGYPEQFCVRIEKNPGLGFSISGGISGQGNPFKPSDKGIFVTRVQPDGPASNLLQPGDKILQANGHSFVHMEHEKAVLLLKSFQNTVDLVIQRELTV

MAGI1_2, Q96QZ7 = target: MAGI1_2, Q96QZ7
MAGI1_2, Q96QZ7, sequence (Q96QZ7 456-580): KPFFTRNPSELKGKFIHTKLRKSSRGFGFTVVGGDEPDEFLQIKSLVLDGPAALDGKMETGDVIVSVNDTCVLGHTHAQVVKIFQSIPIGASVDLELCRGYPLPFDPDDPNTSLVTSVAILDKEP

NHERF3_4, Q5T2W1 = target: T5, NHERF3_4, Q5T2W1
T5 sequence (Q5T2W1 373-468, limits assumed, looked up): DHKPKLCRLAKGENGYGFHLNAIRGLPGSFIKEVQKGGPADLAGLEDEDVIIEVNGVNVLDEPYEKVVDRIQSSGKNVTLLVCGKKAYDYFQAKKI

NHERF4_4, Q86UT5 = target: NHERF4_4, Q86UT5
NHERF4_4, Q86UT5, sequence (Q86UT5 464-550): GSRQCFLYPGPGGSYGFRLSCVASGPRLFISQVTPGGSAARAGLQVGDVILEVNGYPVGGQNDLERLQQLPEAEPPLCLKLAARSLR

NOS1, P29475 = target: NOS1, P29475
NOS1, P29475, sequence (P29475 9-101): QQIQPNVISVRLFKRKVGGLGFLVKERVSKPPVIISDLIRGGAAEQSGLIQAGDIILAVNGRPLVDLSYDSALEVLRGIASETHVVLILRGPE

PDZD2_2, O15018 = target: T6, PDZD2_2, O15018
T6 sequence (O15018 329-429, limits assumed, looked up): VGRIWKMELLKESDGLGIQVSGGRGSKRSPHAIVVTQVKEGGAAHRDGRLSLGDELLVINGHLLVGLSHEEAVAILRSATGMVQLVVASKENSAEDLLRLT

PDZRN3_1, Q9UPQ7 = target: T7, PDZRN3_1, Q9UPQ7
T7 sequence (Q9UPQ7 244-349, limits assumed, looked up): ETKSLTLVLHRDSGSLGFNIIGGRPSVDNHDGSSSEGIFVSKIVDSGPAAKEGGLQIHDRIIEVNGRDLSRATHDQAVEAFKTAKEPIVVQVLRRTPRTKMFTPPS

SHANK1, Q9Y566 = target: T8, SHANK1, Q9Y566
T8 sequence (Q9Y566 658-767, limits assumed, looked up): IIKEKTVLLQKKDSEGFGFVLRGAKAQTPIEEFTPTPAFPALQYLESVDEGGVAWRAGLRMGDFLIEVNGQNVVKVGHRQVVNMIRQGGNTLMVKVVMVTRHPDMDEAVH

SIPA1L2, Q9P2F8 = target: T9, SIPA1L2, Q9P2F8
T9 sequence (Q9P2F8 945-1036, limits assumed, looked up): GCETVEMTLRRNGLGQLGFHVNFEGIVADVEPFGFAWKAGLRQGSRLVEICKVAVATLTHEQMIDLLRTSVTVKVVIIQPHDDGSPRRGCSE

SNX27, Q96L92 = target: SNX27, Q96L92
TJP1_3, Q07157 = target: TJP1_3, Q07157
TJP1_3, Q07157, sequence (Q07157 416-512): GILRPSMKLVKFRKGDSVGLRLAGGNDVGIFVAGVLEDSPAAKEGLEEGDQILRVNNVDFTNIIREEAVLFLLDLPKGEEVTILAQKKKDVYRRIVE

[1] = modified: phospho on T at position -2 from the C-terminal residue
[2] = plain residues with an end cap or a label only (N-terminal biotin on a linker: ado-ado)
[3] = modified: phospho on T at position -1 from the C-terminal residue

AHNAK1, Q09666, sequence (Q09666 4-100): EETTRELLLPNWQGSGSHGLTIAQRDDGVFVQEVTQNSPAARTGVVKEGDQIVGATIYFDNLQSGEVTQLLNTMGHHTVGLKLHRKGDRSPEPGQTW

B1: RPS6KA1_-2P, Q15418 (peptide)
chain: RRVRKLPSTTL
pKd (AHNAK1, Q09666; [1]): below the threshold
pKd (APBA3_1, O96018; [1]): below the threshold
pKd (DLG3_3, Q92796; [1]): below the threshold
pKd (DLG4_3, P78352; [1]): below the threshold
pKd (DLG5_1, Q8TDM6; [1]): below the threshold
pKd (FRMPD2_3, Q68DX3; [1]): below the threshold
pKd (FRMPD4, Q14CM0; [1]): 3.48
pKd (GIPC2, Q8TF65; [1]): below the threshold
pKd (GORASP1, Q9BQQ3; [1]): 3.75
pKd (GRID2IP_2, A4D2P6; [1]): below the threshold
pKd (IL16_3, Q14005; [1]): below the threshold
pKd (Inadl_1, Q8NI35; [1]): below the threshold
pKd (Inadl_4, Q8NI35; [1]): below the threshold
pKd (Inadl_5, Q8NI35; [1]): below the threshold
pKd (Inadl_9, Q8NI35; [1]): below the threshold
pKd (LIMK2, P53671; [1]): below the threshold
pKd (LNX1_3, Q8TBB1; [1]): below the threshold
pKd (LNX2_3, Q8N448; [1]): below the threshold
pKd (LRRC7, Q96NW7; [1]): below the threshold
pKd (MAGI1_2, Q96QZ7; [1]): below the threshold
pKd (NHERF3_4, Q5T2W1; [1]): below the threshold
pKd (NHERF4_4, Q86UT5; [1]): below the threshold
pKd (NOS1, P29475; [1]): below the threshold
pKd (PDZD2_2, O15018; [1]): below the threshold
pKd (PDZRN3_1, Q9UPQ7; [1]): below the threshold
pKd (SHANK1, Q9Y566; [1]): below the threshold
pKd (SIPA1L2, Q9P2F8; [1]): below the threshold
pKd (SNX27, Q96L92; [1]): below the threshold
pKd (TJP1_3, Q07157; [1]): below the threshold

B2: CACNG4, Q9UBN1 (peptide)
chain: SMLNRRTTPV
pKd (AHNAK1, Q09666; [2]): below the threshold
pKd (APBA3_1, O96018; [2]): below the threshold
pKd (DLG3_3, Q92796; [2]): 4.77
pKd (DLG4_3, P78352; [2]): 4.85
pKd (DLG5_1, Q8TDM6; [2]): below the threshold
pKd (FRMPD2_3, Q68DX3; [2]): below the threshold
pKd (FRMPD4, Q14CM0; [2]): below the threshold
pKd (GIPC2, Q8TF65; [2]): below the threshold
pKd (GORASP1, Q9BQQ3; [2]): below the threshold
pKd (GRID2IP_2, A4D2P6; [2]): 3.92
pKd (IL16_3, Q14005; [2]): below the threshold
pKd (Inadl_1, Q8NI35; [2]): below the threshold
pKd (Inadl_4, Q8NI35; [2]): below the threshold
pKd (Inadl_5, Q8NI35; [2]): below the threshold
pKd (Inadl_9, Q8NI35; [2]): below the threshold
pKd (LIMK2, P53671; [2]): below the threshold
pKd (LNX1_3, Q8TBB1; [2]): below the threshold
pKd (LNX2_3, Q8N448; [2]): below the threshold
pKd (LRRC7, Q96NW7; [2]): below the threshold
pKd (MAGI1_2, Q96QZ7; [2]): 4.82
pKd (NHERF3_4, Q5T2W1; [2]): 3.5
pKd (NHERF4_4, Q86UT5; [2]): below the threshold
pKd (NOS1, P29475; [2]): 3.98
pKd (PDZD2_2, O15018; [2]): below the threshold
pKd (PDZRN3_1, Q9UPQ7; [2]): 4.35
pKd (SHANK1, Q9Y566; [2]): below the threshold
pKd (SIPA1L2, Q9P2F8; [2]): below the threshold
pKd (SNX27, Q96L92; [2]): 4.93
pKd (TJP1_3, Q07157; [2]): below the threshold

B3: RPS6KA1_-1P, Q15418 (peptide)
chain: RRVRKLPSTTL
pKd (AHNAK1, Q09666; [3]): 3.52
pKd (APBA3_1, O96018; [3]): below the threshold
pKd (DLG3_3, Q92796; [3]): 3.63
pKd (DLG4_3, P78352; [3]): 3.49
pKd (DLG5_1, Q8TDM6; [3]): below the threshold
pKd (FRMPD2_3, Q68DX3; [3]): below the threshold
pKd (FRMPD4, Q14CM0; [3]): 3.62
pKd (GIPC2, Q8TF65; [3]): 3.55
pKd (GORASP1, Q9BQQ3; [3]): 3.6
pKd (GRID2IP_2, A4D2P6; [3]): 4.22
pKd (IL16_3, Q14005; [3]): below the threshold
pKd (Inadl_1, Q8NI35; [3]): 3.35
pKd (Inadl_4, Q8NI35; [3]): below the threshold
pKd (Inadl_5, Q8NI35; [3]): below the threshold
pKd (Inadl_9, Q8NI35; [3]): below the threshold
pKd (LIMK2, P53671; [3]): below the threshold
pKd (LNX1_3, Q8TBB1; [3]): 3.39
pKd (LNX2_3, Q8N448; [3]): below the threshold
pKd (LRRC7, Q96NW7; [3]): 3.47
pKd (MAGI1_2, Q96QZ7; [3]): 4.32
pKd (NHERF3_4, Q5T2W1; [3]): 3.75
pKd (NHERF4_4, Q86UT5; [3]): below the threshold
pKd (NOS1, P29475; [3]): below the threshold
pKd (PDZD2_2, O15018; [3]): 4.04
pKd (PDZRN3_1, Q9UPQ7; [3]): 4.26
pKd (SHANK1, Q9Y566; [3]): 4.06
pKd (SIPA1L2, Q9P2F8; [3]): below the threshold
pKd (SNX27, Q96L92; [3]): 3.92
pKd (TJP1_3, Q07157; [3]): below the threshold

B4: AKIP1, Q9NQ31 (peptide)
chain: GQSVDLVFPV
pKd (AHNAK1, Q09666; [2]): below the threshold
pKd (APBA3_1, O96018; [2]): below the threshold
pKd (DLG3_3, Q92796; [2]): below the threshold
pKd (DLG4_3, P78352; [2]): below the threshold
pKd (DLG5_1, Q8TDM6; [2]): 3.48
pKd (FRMPD2_3, Q68DX3; [2]): below the threshold
pKd (FRMPD4, Q14CM0; [2]): 3.93
pKd (GIPC2, Q8TF65; [2]): below the threshold
pKd (GORASP1, Q9BQQ3; [2]): 3.92
pKd (GRID2IP_2, A4D2P6; [2]): below the threshold
pKd (IL16_3, Q14005; [2]): below the threshold
pKd (Inadl_1, Q8NI35; [2]): 3.5
pKd (Inadl_4, Q8NI35; [2]): below the threshold
pKd (Inadl_5, Q8NI35; [2]): below the threshold
pKd (Inadl_9, Q8NI35; [2]): 3.5
pKd (LIMK2, P53671; [2]): below the threshold
pKd (LNX1_3, Q8TBB1; [2]): 3.96
pKd (LNX2_3, Q8N448; [2]): below the threshold
pKd (LRRC7, Q96NW7; [2]): below the threshold
pKd (MAGI1_2, Q96QZ7; [2]): below the threshold
pKd (NHERF3_4, Q5T2W1; [2]): below the threshold
pKd (NHERF4_4, Q86UT5; [2]): below the threshold
pKd (NOS1, P29475; [2]): 3.93
pKd (PDZD2_2, O15018; [2]): below the threshold
pKd (PDZRN3_1, Q9UPQ7; [2]): 3.47
pKd (SHANK1, Q9Y566; [2]): below the threshold
pKd (SIPA1L2, Q9P2F8; [2]): below the threshold
pKd (SNX27, Q96L92; [2]): 3.84
pKd (TJP1_3, Q07157; [2]): below the threshold
